Assay results published in the supplement of paper PMC10065799, “High-throughput profiling of sequence recognition by tyrosine kinases and SH2 domains using bacterial peptide display” (eLife, 2023).

Legend:
[1] = target: FGFR3 (UniProt P22607); assay: phosphorylation enrichment, bacterial display (enrichment ratio); higher = better substrate or ligand; peptides without Tyr show the background
[2] = test system: AncSZ; assay: as above
[3] = target: EPHB2 (UniProt P29323); assay: as above
[4] = target: FGFR1 (UniProt P11362); assay: as above
[5] = target: Fyn (UniProt P06241); assay: as above
[6] = target: Fes (UniProt P07332); assay: as above
[7] = test system: c-Src; assay: as above
[8] = target: MERTK (UniProt Q12866); assay: as above
[9] = target: Jak2 (UniProt O60674); assay: as above
[10] = test system: c-Abl (mouse); assay: as above
[11] = target: Hck (UniProt P08631); assay: as above
[12] = test system: Fer (mouse); assay: as above
[13] = target: EPHB1 (UniProt P54762); assay: as above
[14] = target: SHP2-C SH2; assay: SH2 binding enrichment of the phosphorylated peptide, bacterial display (enrichment ratio); higher = better substrate or ligand; peptides without Tyr show the background
[15] = target: c-Src SH2; assay: as above
[16] = target: Grb2 SH2 (UniProt P62993); assay: as above
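Wherever SH2 binding enrichment of the phosphorylated peptide, bacterial display is given: peptide library displayed on the E. coli surface as eCPX fusions, selected cells deep-sequenced, score is each peptide's frequency after selection divided by its frequency in the input.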
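Wherever phosphorylation enrichment, bacterial display is given: 11-residue human phosphosite peptides and single-mutation variants displayed on the E. coli surface, counted by deep sequencing, each peptide's frequency after selection divided by its frequency in the unselected input library; frequency after pTyr selection over input frequency; kinase dosed for 20-30% of maximal phosphorylation in three min.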

Chain of Jak2 (O60674 whole entry, looked up): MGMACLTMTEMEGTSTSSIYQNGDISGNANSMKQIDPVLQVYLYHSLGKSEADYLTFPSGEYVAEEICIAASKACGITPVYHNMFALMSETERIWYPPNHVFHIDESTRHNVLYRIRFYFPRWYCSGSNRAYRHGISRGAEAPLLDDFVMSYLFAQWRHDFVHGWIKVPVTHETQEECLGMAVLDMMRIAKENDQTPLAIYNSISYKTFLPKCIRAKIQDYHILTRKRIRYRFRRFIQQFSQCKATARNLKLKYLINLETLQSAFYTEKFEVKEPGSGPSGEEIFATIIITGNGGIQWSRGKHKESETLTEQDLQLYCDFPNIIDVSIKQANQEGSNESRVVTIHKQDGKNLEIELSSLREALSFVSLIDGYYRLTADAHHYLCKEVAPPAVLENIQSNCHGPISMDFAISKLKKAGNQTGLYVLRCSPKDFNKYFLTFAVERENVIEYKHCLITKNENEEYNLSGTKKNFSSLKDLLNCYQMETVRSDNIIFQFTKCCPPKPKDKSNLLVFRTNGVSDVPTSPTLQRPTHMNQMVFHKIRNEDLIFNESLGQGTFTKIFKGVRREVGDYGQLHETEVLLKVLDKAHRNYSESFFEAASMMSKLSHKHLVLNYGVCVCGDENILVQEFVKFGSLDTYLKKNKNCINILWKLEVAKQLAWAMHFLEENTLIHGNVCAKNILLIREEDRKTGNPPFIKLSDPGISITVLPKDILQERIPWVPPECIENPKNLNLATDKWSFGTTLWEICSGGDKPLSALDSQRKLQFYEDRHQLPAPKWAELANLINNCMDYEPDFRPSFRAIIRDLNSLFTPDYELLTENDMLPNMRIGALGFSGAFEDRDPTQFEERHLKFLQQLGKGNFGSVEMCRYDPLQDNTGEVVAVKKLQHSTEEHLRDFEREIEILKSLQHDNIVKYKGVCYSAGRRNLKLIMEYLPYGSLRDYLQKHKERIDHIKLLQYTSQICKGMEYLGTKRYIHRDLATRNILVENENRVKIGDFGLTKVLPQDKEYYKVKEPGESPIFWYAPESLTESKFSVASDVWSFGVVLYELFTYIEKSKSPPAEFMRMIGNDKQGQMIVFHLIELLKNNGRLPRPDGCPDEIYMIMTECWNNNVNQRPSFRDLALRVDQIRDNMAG
Chain of EPHB1 (P54762 whole entry, looked up): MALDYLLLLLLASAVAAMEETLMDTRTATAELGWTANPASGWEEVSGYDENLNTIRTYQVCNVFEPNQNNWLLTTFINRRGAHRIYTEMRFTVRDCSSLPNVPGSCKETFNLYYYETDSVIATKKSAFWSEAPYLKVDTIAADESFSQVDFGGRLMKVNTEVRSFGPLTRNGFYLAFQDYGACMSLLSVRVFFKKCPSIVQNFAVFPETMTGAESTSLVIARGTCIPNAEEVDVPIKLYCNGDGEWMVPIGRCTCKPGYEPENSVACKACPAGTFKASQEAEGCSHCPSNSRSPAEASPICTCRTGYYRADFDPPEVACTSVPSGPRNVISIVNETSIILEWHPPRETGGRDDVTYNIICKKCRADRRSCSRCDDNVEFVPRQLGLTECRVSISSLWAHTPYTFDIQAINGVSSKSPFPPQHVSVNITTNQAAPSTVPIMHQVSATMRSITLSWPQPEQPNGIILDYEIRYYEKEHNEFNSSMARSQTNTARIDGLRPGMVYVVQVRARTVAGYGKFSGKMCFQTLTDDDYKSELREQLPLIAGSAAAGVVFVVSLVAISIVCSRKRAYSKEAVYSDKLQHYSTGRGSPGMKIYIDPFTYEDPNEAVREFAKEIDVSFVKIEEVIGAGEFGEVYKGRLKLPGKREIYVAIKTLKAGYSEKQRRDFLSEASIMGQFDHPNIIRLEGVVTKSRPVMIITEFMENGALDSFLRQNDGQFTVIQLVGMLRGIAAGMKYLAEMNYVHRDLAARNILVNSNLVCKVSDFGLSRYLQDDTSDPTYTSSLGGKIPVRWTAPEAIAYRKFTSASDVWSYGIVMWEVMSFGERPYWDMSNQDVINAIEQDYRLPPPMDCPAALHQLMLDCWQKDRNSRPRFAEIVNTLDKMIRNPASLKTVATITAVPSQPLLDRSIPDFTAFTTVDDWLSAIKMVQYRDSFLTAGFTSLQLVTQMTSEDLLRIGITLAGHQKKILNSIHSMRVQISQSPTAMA
Chain of FGFR3 (P22607 whole entry, looked up): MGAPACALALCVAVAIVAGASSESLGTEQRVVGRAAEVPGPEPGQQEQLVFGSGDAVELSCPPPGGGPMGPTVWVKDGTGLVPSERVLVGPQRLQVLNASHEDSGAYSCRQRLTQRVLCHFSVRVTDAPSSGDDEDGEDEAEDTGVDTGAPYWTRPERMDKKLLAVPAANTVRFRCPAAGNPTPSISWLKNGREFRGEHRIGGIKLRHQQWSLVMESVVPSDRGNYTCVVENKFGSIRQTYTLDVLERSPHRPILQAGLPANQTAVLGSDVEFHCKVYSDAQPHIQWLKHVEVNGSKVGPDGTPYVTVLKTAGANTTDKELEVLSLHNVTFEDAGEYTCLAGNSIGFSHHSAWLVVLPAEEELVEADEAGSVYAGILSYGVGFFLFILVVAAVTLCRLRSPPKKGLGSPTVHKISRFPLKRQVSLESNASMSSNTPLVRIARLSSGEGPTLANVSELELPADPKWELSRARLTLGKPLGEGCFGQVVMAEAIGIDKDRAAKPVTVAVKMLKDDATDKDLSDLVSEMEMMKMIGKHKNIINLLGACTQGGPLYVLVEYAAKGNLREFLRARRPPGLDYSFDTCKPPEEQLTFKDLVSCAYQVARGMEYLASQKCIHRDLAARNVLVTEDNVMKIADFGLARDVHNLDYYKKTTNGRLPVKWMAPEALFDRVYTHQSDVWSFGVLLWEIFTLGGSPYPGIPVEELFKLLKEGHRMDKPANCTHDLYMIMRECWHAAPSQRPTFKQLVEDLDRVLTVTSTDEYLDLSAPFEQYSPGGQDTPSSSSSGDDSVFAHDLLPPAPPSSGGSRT
Chain of Fes (P07332 whole entry, looked up): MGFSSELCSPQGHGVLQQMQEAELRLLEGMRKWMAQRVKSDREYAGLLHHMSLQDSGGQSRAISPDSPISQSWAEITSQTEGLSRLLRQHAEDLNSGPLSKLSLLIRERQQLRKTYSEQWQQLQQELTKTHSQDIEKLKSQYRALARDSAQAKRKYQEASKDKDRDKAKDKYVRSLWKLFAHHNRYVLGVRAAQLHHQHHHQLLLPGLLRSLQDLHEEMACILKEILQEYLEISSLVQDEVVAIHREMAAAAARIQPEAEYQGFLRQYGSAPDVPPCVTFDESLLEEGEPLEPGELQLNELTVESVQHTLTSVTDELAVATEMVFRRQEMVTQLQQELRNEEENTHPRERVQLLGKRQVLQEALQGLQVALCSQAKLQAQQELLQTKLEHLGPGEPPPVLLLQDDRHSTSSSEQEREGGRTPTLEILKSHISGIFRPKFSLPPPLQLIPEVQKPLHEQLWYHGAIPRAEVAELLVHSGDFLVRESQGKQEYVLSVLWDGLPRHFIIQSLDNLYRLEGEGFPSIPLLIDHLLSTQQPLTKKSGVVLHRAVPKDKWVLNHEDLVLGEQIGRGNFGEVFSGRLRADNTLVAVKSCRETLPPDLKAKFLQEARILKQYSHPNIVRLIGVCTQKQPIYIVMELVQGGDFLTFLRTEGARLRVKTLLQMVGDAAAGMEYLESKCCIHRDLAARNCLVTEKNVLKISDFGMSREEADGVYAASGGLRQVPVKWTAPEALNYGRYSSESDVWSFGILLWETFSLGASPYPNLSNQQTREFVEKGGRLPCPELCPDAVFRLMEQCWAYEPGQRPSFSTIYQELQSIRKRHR
Chain of EPHB2 (P29323 whole entry, looked up): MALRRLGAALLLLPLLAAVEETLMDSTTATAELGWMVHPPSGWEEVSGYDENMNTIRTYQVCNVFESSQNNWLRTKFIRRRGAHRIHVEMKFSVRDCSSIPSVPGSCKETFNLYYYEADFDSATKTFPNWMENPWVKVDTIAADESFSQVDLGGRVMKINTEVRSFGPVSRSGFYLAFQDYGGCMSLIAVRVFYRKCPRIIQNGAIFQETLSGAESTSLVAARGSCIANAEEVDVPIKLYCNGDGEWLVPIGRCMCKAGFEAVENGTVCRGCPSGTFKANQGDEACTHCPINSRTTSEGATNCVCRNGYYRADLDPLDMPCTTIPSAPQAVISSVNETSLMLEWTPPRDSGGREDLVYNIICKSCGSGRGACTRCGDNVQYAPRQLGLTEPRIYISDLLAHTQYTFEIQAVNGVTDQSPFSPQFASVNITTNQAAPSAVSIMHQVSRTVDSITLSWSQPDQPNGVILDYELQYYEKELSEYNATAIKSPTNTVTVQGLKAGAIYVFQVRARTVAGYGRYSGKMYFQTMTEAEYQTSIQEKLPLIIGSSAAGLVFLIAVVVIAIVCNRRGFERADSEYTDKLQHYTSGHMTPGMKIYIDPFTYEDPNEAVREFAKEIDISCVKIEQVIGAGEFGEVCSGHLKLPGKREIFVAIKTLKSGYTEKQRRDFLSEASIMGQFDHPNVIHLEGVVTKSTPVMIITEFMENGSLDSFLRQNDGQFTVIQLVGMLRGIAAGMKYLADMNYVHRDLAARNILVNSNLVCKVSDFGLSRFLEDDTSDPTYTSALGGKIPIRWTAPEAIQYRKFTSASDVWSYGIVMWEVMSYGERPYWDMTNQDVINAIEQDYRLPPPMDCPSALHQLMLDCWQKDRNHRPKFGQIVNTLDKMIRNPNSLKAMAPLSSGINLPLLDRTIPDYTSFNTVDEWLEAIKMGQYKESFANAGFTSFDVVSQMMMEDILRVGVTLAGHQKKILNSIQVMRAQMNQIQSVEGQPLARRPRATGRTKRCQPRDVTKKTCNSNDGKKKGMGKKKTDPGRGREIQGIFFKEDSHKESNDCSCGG

Row | Sequence | SH2 binding enrichment [14] | SH2 binding enrichment [15] | SH2 binding enrichment [16] | phosphorylation enrichment [1] | phosphorylation enrichment [2] | phosphorylation enrichment [3] | phosphorylation enrichment [4] | phosphorylation enrichment [5] | phosphorylation enrichment [6] | phosphorylation enrichment [7] | phosphorylation enrichment [8] | phosphorylation enrichment [9] | phosphorylation enrichment [10] | phosphorylation enrichment [11] | phosphorylation enrichment [12] | phosphorylation enrichment [13]
1 | DGKYSYLKVGH [GRM3_Y480_G475D] | 1.45 | 4.12 | 1.05 | 0.427 | 0.442 | 0.297 | 0.38 | 0.372 | 0.623 | 0.352 | 0.44 | 0.437 | 0.284 | 0.455 | 0.372 | 0.303
2 | DGMADYSDPSF [CDC5L_Y459_YF] | 0.662 | 0.557 | 0.781 | 1 | 1.92 | 3.21 | 0.911 | 0.488 | 1.2 | 0.501 | 0.5 | 1.12 | 1.04 | 0.63 | 0.592 | 1.72
3 | DHFNQYEQQKM [CHD7_Y75_YF] | 0.682 | 0.501 | 0.752 | 0.582 | 0.834 | 0.462 | 0.468 | 0.382 | 0.744 | 0.414 | 0.425 | 0.535 | 0.599 | 0.47 | 0.415 | 0.457
4 | DLDATYRPMYS [JUP_Y701_M697L] | 0.832 | 0.502 | 0.798 | 0.512 | 0.699 | 0.444 | 0.383 | 0.46 | 0.86 | 0.569 | 0.386 | 0.588 | 0.486 | 0.6 | 0.433 | 0.399
5 | DLDTEYGSGYP [RNASEH2A_Y206_D205E] | 0.464 | 0.531 | 0.7 | 0.652 | 1.23 | 0.542 | 0.507 | 0.49 | 1.01 | 0.549 | 0.379 | 1.17 | 0.727 | 0.546 | 0.505 | 0.652
6 | DNLNNYVFQGQ [GRIN2A_Y978] | 0.617 | 0.438 | 0.819 | 0.789 | 1.21 | 1.17 | 0.703 | 0.593 | 1.06 | 0.598 | 0.657 | 1.01 | 0.815 | 0.392 | 0.514 | 1.77
7 | DPLLTYRFPPK [LMNA_Y481] | 0.911 | 0.542 | 0.921 | 0.446 | 0.597 | 0.349 | 0.452 | 0.502 | 0.513 | 0.635 | 0.434 | 0.515 | 0.578 | 0.43 | 0.292 | 0.422
8 | DPYHVYIKNHV [KCNE3_Y95_R99H] | 0.779 | 0.939 | 0.804 | 0.533 | 0.845 | 0.459 | 0.447 | 0.981 | 0.826 | 2.34 | 0.399 | 0.798 | 0.685 | 0.705 | 0.45 | 0.467
9 | DQNVEYKGTVS [FHL1_Y117_W122S] | 0.704 | 0.53 | 0.867 | 0.566 | 0.801 | 0.616 | 0.525 | 0.422 | 0.828 | 0.444 | 0.452 | 0.618 | 0.624 | 0.495 | 0.468 | 0.508
10 | DRLASSLDKVR [KRT10_Y160_Y160S] | 0.846 | 0.422 | 0.974 | 0.415 | 0.438 | 0.364 | 0.35 | 0.423 | 0.663 | 0.333 | 0.331 | 0.473 | 0.468 | 0.308 | 0.412 | 0.34
11 | DRLASYQDKVR [KRT12_Y139_L140Q] | 0.685 | 0.546 | 0.786 | 0.539 | 0.532 | 0.461 | 0.394 | 0.361 | 0.68 | 0.41 | 0.437 | 0.577 | 0.516 | 0.417 | 0.299 | 0.411
12 | DRTGHYLCNAC [GATA1_Y223] | 0.595 | 0.503 | 0.792 | 0.449 | 0.691 | 0.676 | 0.349 | 0.389 | 0.769 | 0.469 | 0.499 | 0.885 | 0.575 | 0.489 | 0.408 | 0.389
13 | DSSIRYLQEIH [FGG_Y135_Y140H] | 0.667 | 0.499 | 0.705 | 0.509 | 0.597 | 0.402 | 0.384 | 0.388 | 0.667 | 0.347 | 0.369 | 0.561 | 0.524 | 0.356 | 0.33 | 0.378
14 | DVFRQYASLRG [GANAB_Y379_T383R] | 31 | 1.57 | 0.842 | 0.41 | 0.482 | 0.435 | 0.453 | 0.393 | 0.625 | 0.399 | 0.384 | 0.504 | 0.459 | 0.404 | 0.295 | 0.329
15 | DVLPEYKLQAP [KCNH2_Y388] | 0.625 | 0.508 | 1.02 | 0.728 | 0.911 | 0.557 | 0.48 | 0.53 | 0.861 | 0.405 | 0.432 | 0.659 | 0.693 | 0.519 | 0.427 | 0.548
16 | EAGKVYLKAPM [CBFB_Y96] | 0.609 | 0.503 | 0.956 | 0.609 | 0.754 | 0.524 | 0.433 | 0.492 | 0.939 | 0.434 | 0.602 | 0.669 | 0.504 | 0.496 | 0.411 | 0.443
17 | EAIMTYVSSFY [ACTN4_Y260_K255E] | 0.672 | 0.477 | 0.712 | 0.693 | 1.14 | 0.631 | 0.459 | 0.503 | 1.12 | 0.855 | 0.457 | 1.06 | 0.708 | 0.631 | 0.445 | 0.617
18 | EALDFYGEVRI [PTEN_Y155_T160I] | 0.567 | 0.499 | 1.09 | 1.1 | 1.49 | 0.614 | 0.538 | 1.64 | 1.73 | 1.44 | 0.494 | 2.03 | 1.11 | 1.13 | 1.55 | 0.871
19 | EEGNPSYSSAR [MCCC2_Y520_Y520S] | 0.647 | 0.517 | 0.825 | 0.554 | 0.962 | 0.539 | 0.529 | 0.497 | 1 | 0.542 | 0.501 | 0.776 | 1.25 | 0.585 | 0.513 | 0.514

Continued, in another order:

Row | SH2 binding enrichment [14] | SH2 binding enrichment [15] | SH2 binding enrichment [16] | Sequence | phosphorylation enrichment [1] | phosphorylation enrichment [2] | phosphorylation enrichment [3] | phosphorylation enrichment [4] | phosphorylation enrichment [5] | phosphorylation enrichment [6] | phosphorylation enrichment [7] | phosphorylation enrichment [8] | phosphorylation enrichment [9] | phosphorylation enrichment [10] | phosphorylation enrichment [11] | phosphorylation enrichment [12] | phosphorylation enrichment [13]
20 | 0.719 | 0.45 | 0.905 | DKITQYVEEVR [STX2_Y49_K54R] | 0.609 | 0.999 | 0.551 | 0.477 | 0.427 | 1.08 | 0.417 | 0.411 | 0.872 | 0.605 | 0.517 | 0.486 | 0.739
21 | 1.24 | 3.41 | 0.824 | DLAAQYTTVGR [SGSH_Y240] | 0.53 | 0.701 | 0.415 | 0.462 | 0.52 | 0.664 | 0.912 | 0.494 | 0.724 | 0.542 | 0.799 | 0.382 | 0.407
22 | 0.622 | 0.429 | 1.06 | DLDTEYGSGFP [RNASEH2A_Y206_D205E_YF] | 0.958 | 1.55 | 0.642 | 0.622 | 0.744 | 1.34 | 0.825 | 0.469 | 1.39 | 1.27 | 0.654 | 0.799 | 0.676
23 | 0.851 | 0.652 | 0.93 | DMLFQYLKQIE [RPAP3_Y569_YF] | 0.59 | 1.48 | 0.588 | 0.531 | 0.421 | 1.22 | 0.468 | 0.523 | 0.976 | 0.577 | 0.571 | 0.462 | 0.684
24 | 0.627 | 0.469 | 0.77 | DNEALYDICFR [TUBB2B_Y208] | 0.917 | 3.21 | 4.88 | 0.618 | 6.65 | 1.6 | 5.86 | 7.51 | 1.38 | 3.58 | 6.43 | 10.2 | 4.63
25 | 0.737 | 1.75 | 0.957 | DPHQQYYIAMD [TBX15_Y159] | 4.36 | 1.05 | 0.593 | 6.27 | 0.625 | 0.881 | 1.55 | 2.7 | 0.996 | 0.59 | 0.669 | 0.52 | 0.735
26 | 0.697 | 0.494 | 0.705 | DSDTDYGSGFP [RNASEH2A_Y206_L202S_YF] | 0.605 | 1.1 | 0.557 | 0.418 | 0.429 | 1.01 | 0.494 | 0.455 | 0.905 | 0.755 | 0.566 | 0.492 | 0.545
27 | 0.914 | 0.633 | 0.887 | DSEIRYLSADS [TTF1_Y476] | 0.709 | 0.964 | 0.547 | 0.546 | 0.526 | 0.933 | 0.51 | 0.461 | 0.868 | 0.727 | 0.458 | 0.551 | 0.489
28 | 0.847 | 0.421 | 0.901 | EEQKKYFNAMK [SCN5A_Y1494_YF] | 0.656 | 0.882 | 0.474 | 0.421 | 0.489 | 0.866 | 0.479 | 0.428 | 0.672 | 0.616 | 0.459 | 0.341 | 0.459
29 | 0.789 | 0.607 | 1.51 | EFEGLYQEGGG [TMEM159_Y159] | 0.612 | 0.974 | 0.579 | 0.5 | 0.675 | 0.939 | 0.658 | 0.456 | 0.781 | 0.551 | 0.842 | 0.585 | 0.576
